Measured values reported in FireProtDB (doi:10.1074/jbc.273.32.19982).

B1: DNA-binding protein HU 1, P08821 (parent)
chain: MNKTELINAVAEASELSKKDATKAVDSVFDTILDALKNGDKIQLIGFGNFEVRERSARKGRNPQTGEEIEIPASKVPAFKPGKALKDAVAGK
B2: DNA-binding protein HU, P0A3H0 (parent)
chain: MNKTELINAVAETSGLSKKDATKAVDAVFDSITEALRKGDKVQLIGFGNFEVRERAARKGRNPQTGEEMEIPASKVPAFKPGKALKDAVK

Columns and labels:
[1] = variants of: B1; details: Bacillus subtilis (strain 168), pH 7, Thermal, CD, Sodium phosphate 5 mM, NaCl 0.2 M, reversible: yes, whole UniProt chain shown; for ddG of mutation (higher = less stable): 48.6 °C
[2] = variants of: B2; details: Geobacillus stearothermophilus, pH 7, Thermal, structure 1HUE, whole UniProt chain shown; for ddG of mutation (higher = less stable): 63.9 °C
[3] = CD, Sodium phosphate 5 mM, NaCl 0.2 M, reversible: yes

Variant | ddG of mutation (higher = less stable) [1] [kcal/mol] | Tm [1] [°C] | change of melting temperature, mutant - wild type (higher = more stable) [1] [°C] | ddG of mutation (higher = less stable) [2, 3] [kcal/mol] | Tm [2, 3] [°C] | change of melting temperature, mutant - wild type (higher = more stable) [2, 3] [°C] | unfolding enthalpy (van 't Hoff) [2, 3] [kcal/mol] | Tm ([2]; DSC, phosphate 0.05 M) [°C] | change of melting temperature, mutant - wild type (higher = more stable) ([2]; DSC, phosphate 0.05 M) [°C]
D34E N38K | -0.45 | 52.1 | 3.5 | – | – | – | – | – | –
E15G S27A D34E N38K I42V | -2.98 | 71.3 | 22.7 | – | – | – | – | – | –
S27A | -0.73 | 54.2 | 5.6 | – | – | – | – | – | –
E15G | -1.55 | 60.4 | 11.8 | – | – | – | – | – | –
I42V | – | 52.6 | 4 | – | – | – | – | – | –
A56S | – | – | – | 0.13 | 63.3 | -0.6 | 83 | – | –
A27S | – | – | – | – | 58.4 | -5.5 | 76.5 | – | –
G15E | – | – | – | – | 54 | -9.9 | – | 55.7 | -10.1
K38N | – | – | – | – | 61.5 | -2.4 | – | 61.7 | -4.1
S31T | – | – | – | -0.41 | 65.8 | 1.9 | 81.1 | – | –
M69I | – | – | – | 0 | 63.9 | 0 | 79.2 | – | –
V42I | – | – | – | 0.82 | 60.1 | -3.8 | 54.7 | 59.6 | -6.2
E34D | – | – | – | – | 61.6 | -2.3 | – | 63.5 | -2.3
